Target: the molecule itself
Assay: SDS-PAGE without heat denaturation or reducing agent

B1: recombinant mouse full-length adiponectin subfractions, unlabeled (natural protein, UniProt Q60994 18-247, looked up)
chain: EDDVTTTEELAPALVPPPKGTCAGWMAGIPGHPGHNGTPGRDGRDGTPGEKGEKGDAGLLGPKGETGDVGMTGAEGPRGFPGTPGRKGEPGEAAYVYRSAFSVGLETRVTVPNVPIRFTKIFYNQQNHYDGSTGKFYCNIPGLYYFSYHITVYMKDVKVSLFKKDKAVLFTYDQYQEKNVDQASGSVLLHLEVGDQVWLQVYGDGDHNGLYADNVNDSTFTGFLLYHDTN
  stoichiometry N: 6

Source: PMC3195669 (Biologics : Targets & Therapy, 2011)
